Assay results taken from doi:10.1101/2024.09.19.613683 (bioRxiv, 2024).

B1: tail sheath protein of phage 812 (natural protein, Staphylococcus phage 812)
chain: MAVEPFPRRPITRPHASIEVDTSGIGGSAGSSEKVFCLIGQAEGGEPNTVYELRNYSQAKRLFRSGELLDAIELAWGSNPNYTAGRILAMRIEDAKPASAEIGGLKITSKIYGNVANNIQVGLEKNTLSDSLRLRVIFQDDRFNEVYDNIGNIFTIKYKGEEANATFSVEHDEETQKASRLVLKVGDQEVKSYDLTGGAYDYTNAIITDINQLPDFEAKLSPFGDKNLESSKLDKIENANIKDKAVYVKAVFGDLEKQTAYNGIVSFEQLNAEGEVPSNVEVEAGEESATVTATSPIKTIEPFELTKLKGGTNGEPPATWADKLDKFAHEGGYYIVPLSSKQSVHAEVASFVKERSDAGEPMRAIVGGGFNESKEQLFGRQASLSNPRVSLVANSGTFVMDDGRKNHVPAYMVAVALGGLASGLEIGESITFKPLRVSSLDQIYESIDLDELNENGIISIEFVRNRTNTFFRIVDDVTTFNDKSDPVKAEMAVGEANDFLVSELKVQLEDQFIGTRTINTSASIIKDFIQSYLGRKKRDNEIQDFPAEDVQVIVEGNEARISMTVYPIRSFKKISVSLVYKQQTLQA
B2: tail tube protein of phage 812 (natural protein, Staphylococcus phage 812)
chain: MASEAKQTVHTGNTVLLMIKGKPVGRAQSASGQREYGTTGVYEIGSIMPQEHVYLRYEGTITVERLRMKKENFADLGYASLGEEILKKDIIDILVVDNLTKQVIISYHGCSANNYNETWQTNEIVTEEIEFSYLTASDKART

Key:
cryo-EM structure = target: the molecule itself; assay: cryo-EM structure
[1] = target: B1; assay: cryo-EM structure

Binder | binding result (cryo-EM structure) | binding result [1]
B1 | binds | 
B2 |  | binds
